Laboratory results: the DeepSol protein solubility set

experiment: soluble on expression in E. coli; label from the status in PepcDB or PDB records

Soluble on expression in E. coli, not soluble:
MGSDKIHHHHHHMKIPRRLEPLLEDGLIDGVVRQLMSGKEAMVFAVRCGDEIRCAKVYKEANKRSFRQAVDYTENRKTKNSRQARAMAKGSKYGRQMQEAAWQSAEVDALYRLAAAGVRVPTPYNFHEGVLLMELVADADGNAAPRLNDVSFTEGEALAHHQTLIREVVRMLCAGVVHGDLSEFNILVGADGPVIIDLPQAVDAAGNNHAQAMLMRDVHNLRGYFGQFAPALLTTRYAEEIWALYEHGSLHPEVALSGQFECEMPPVDLEGVMREIDDAREQEAARLLRLQELS
MGSDKIHHHHHHMKISEFEGPLDLLLHLIRQNKMDIYDIPIAAITQQYLDYLHSMRALKLDIAGDYLVMAATLMTIKSRFLLPQPEPDEMDEDNEDDDPRDSLVAELLAYKVYQEAAGELREKEQARHQHFTREAMLVPADLSAPKLTAGITLDDLQAAFRQLVAKRRRVRPLTKTVVAETINIDERMTQITTQLQHQPQGLDFADLFTVSASDEMLVTTFMAVLELTKQDQVALQQAEPLSPIHLYLRQDEQHDEH
MGSDKIHHHHHHMKISGHTSVVVAEKLLSEAKFSNLTQSAVVMISQRLCLGIILTGFITNQALAAEPKQSVVPISSVLATNYNKTQIHVTPVHSLVPKLSTKRANFKQETTTQDSVYLADWVLDSGDNQQMPFAIVDKKAAKVYVFDALGQLTGAAPALLGLAVGDDSIPNIGNMALASIKPEQRTTPAGRFVVALGKNIHNKEVLWIDYDAAISLHRVVTSSPKERRLQRLESQNLLERRISYGCINVPVNFYDQVVSPAFTGTNGVVYVLPDTRSIQEVFGSYSEPPRVYRRQIYLSQAAMPDRVKLS
MGSDKIHHHHHHMKIVYIITQATWGGAQAHLYSLIKAQVMRGNAVALVYGVEGRLSASVAKEFQDVQVVRVASLVHPIAPLSDLKAIYTLRKLVKNWQPDIIHLHSSKAGMIGRLATIRLPMKVIFTVHGWGFTPGVGKKRQLLMKTIEKALSRLTTAYICVSQFDYDLGVQSGVITSAHPARVIHNGVTALTGANKATSSEVFVLSMAARFDTPKRQDILIQALTYLPENLPIVCHFLGDGPSIEACKTLTHQLNLDGKVNFYGVVDNVQKYYSQSDVGVLISDYEALPISLVEALAQGLPIIASNVGGIQELIDHNGFLVTNDARQIAEKILTLYQSKKIAEVKTNSYQMYQRHYTEHEMLEQTQAYYLRCLA
MGSDKIHHHHHHMKKHLNTLFVTTQGAYLSKEGETVVVKVDREVRLRVPVHTLGGIVCFGNIGCSPYLMGFCAEKSVCISFLSERGRFLARVQGPVSGNVLLRREQYRRADDPEFSAIMARYVLTGKIANCRTVLQRALRDHQEKINADSVRQAVDHLGRCLTSLGREKSLDNLRGIEGDAAHRYFSVFNELILMQKDAFIFDERNRRPPLDPMNCLLSFAYTLLVHDIRSALEAVGLDPAVGYLHRDRPGRPGLALDIMEEFRPFIVDRLVLSLVNLRKVQAKGFKKSESGAVQMDDDTRRTLLVSYQERKQEEMLHPFLGERTTFGLLFHVQAMLLARYLRGDLDGYPPFIYR
MGSDKIHHHHHHMKKIAILYPAHYEQSSGGAEIQILYLINACKQQNWEIHYIFEDKGTDIKNKENIVLHPLCKMKNYKFCGKGWFLYEKQILRELNAIKPDTIYTRIGSSWIGIATSYAKNHKVKHAHALASDSSVTRKLLGKPLYPLFSQIETYYINKGLVGADVIIAQNVFQQQMLSKRYGKESILVNQMTPSVDESCLQKKYNKIKIIWVANFKELKHPELFVQLAKDLKGHSDRIEMYMCGRSTSKYNNLLQDLNHIDYLNYLGSLDQEQVFDLMNEAHILVNTSEYEGFSNTFVQAWMRKVVVVSMNSNPSDILTSQGIGFLTPNMTNLVATIHKLIEHPEIISELGEKSYQYALENHDLNKNMKKIIEVL
MGSDKIHHHHHHMKKIIYFITLLFLVGCVDLSENMYNDLGKDNYYQTEQEYDAAFMNQYAFLRTMYAWNVFYLQEITTDEACLPQKGRDGYDGGIYQRMHWHTWTDQDVIINGAWQELFKAVGFCNQVLNDLNNSRSDILPENKKKLYIAESRALRAFFYSMLVDMFGNVPIVEKVSELNPPTKTRTEVFNYVEKEIAEVKDQLLRSTDTGSYGRFTQEAALALLSRLYLNAEVYTGTSRLDDCISVSQTLLQKGYQLESTWDAPFAWNNENSKENIWVIPNDEIVANEMSVLFYRNIHWSQRSQWDWKNPNGGWNGVCTVREFIETYDITHDRRCKYDPQNGMYGQFMWGPQFDLSGNPILGTNEYAGQQLDFTLDLPDMVNNKENAGARNIKYKVKVGAQGMENDFALFRIAEINFNLAEATLRKSNEVDSKALEGINKIRTRAGVSTYATGELTLDELYREKGREMCYETLRRTDMIRFGRFIQPMWDKNYTDKETINLFPIPLQATKLNPELKQNPGYTK
MGSDKIHHHHHHMKKILVVSHGAALGGSPISGLNIGRHIDKNQFEVIYAFGEEREIFDIAKKEGFKVFFVPKRSYLTIWDYAKIICREKIDIVHLNTLTSYYKYPAMAAWLCRKKIVWFVRENPEEKRCVRLGKYINALADRIVTVSLDTAKKMFYANHAKLCTIYNGIDLKFKKIEGRERLCEELGLSAREKYILCVASLEERKGVKDLVRAFLSSLPKLQGYKLLIVGEDRTKEQRYFLELKELAKDSSEVIFYGKSQKIQQLLSLSELFVLPSYWEGMARVILEAMACGLPVVASDAGGNREQVMDGVNGFLFPPRDIQALSAALEKAILGGRTQLLGKNSRELLEKNFDIKETTKKIENLYKAL
MGSDKIHHHHHHMKKKDMNKQVKIQDAVAAIILAEGPAGVSTTKVAKRVGIAQSNVYLYFKNKQALIDSVYARETNRILSTTDLDRLSDSTIDVTTRIRLYVQQVYDYSLANPDSLTIIQQIKALNGQGMTISAADADPNNIVANLLTAAIDAKVIKQLPVSLHMGVVFSTIHTHTTNISKGRYAQDQYTFGDIFQMIWDAMKQD
MGSDKIHHHHHHMKKMTILSAAVLMALGAPVAMAKVSEAEAAKLGAELTPQGAVKAGNADGSIPAWDGGITTAVAGYSQGMHHPDPFPTDKILFTITNANKAQYKDFLNPGQVKLFELYPETYKMNVYETRRTASVPQYVYDATKANATRAELIAQGNGISGATIGVPFPIPANGLEVIWNHVLRFRGVDLETNRSQASPTADGSYTLVETAEELRFEYSRPEITLDKLKETNTLFFFKQVVTQPARLAGTALLVKETMDQEALPRQAWTYNTGQRRVRKAPNIAFDTPGTVADGLRTTDDFDMFNGSPVRYNWELVGKKEMYIPYNDYKLHSDSLKYDQILKPGHINPDLVRWEKHRVWEVKATLKAGMRHIYKTRVFYIDEDSWQVSLTDMYDNRDELYRVANAHSINYYEVPTLWTTLEVFHDLQSRRYLAMGLDNEGRMYNFKANLTESNFTPDALRRAGIR
MGSDKIHHHHHHMKKSTLIDKFLDLLSSRSSLREIQNNFIDANIMRDSSINQKYNGQRKSLAWEYISTLNLEDEAEFSKLLNVIETYLFQWNLYIHEVDEDEEINRLIKIINVLGYEYNKDTGKITKNEREVNLSTIKSLAIKFDIEYVLKECNRIEKEALTDPEDAITSAKSMVESTLKHILDSEGEKFNNNETLRGLYKKVSNIMNLSPGGHNENTFKTILSGMINVINGLDEVRNEYGDAHGKSKKNYRPETRHAFLAINAARTITEFLLASYKK
MGSDKIHHHHHHMKKYFPSSELIINEDGSVFHLHVKPEWLADKVILVGDPGRVALVASHFENKECEVESREFKTITGTYKGKRITVVSTGIGCDNIDIVMNELDALANINFETREEKEKFRQLELVRIGTCGGLQPNTPVGTFVCSQKSIGFDGLLNFYAGRNAVCDLPFERAFLNHMGWSGNMCAPAPYVIDASEELIDRIAKEDMVRGVTIAAGGFFGPQGRELRIPLADPKQNDKIEAFEYKGFKITNFEMESSALAGLSRLMGHKAMTVCMVIANRLIKEANTGYKNTIDTLIKTVLDRI
MGSDKIHHHHHHMKKYLTLAASALLLAACSEKPGYEINGTVANTDLNGKYVYLYEYGVQDAAPMDSALVQNGTFTFKGTQSAPALRKLAFAEDVVEPKRAASGENAPFTSVFVLENGKLQAVLDEAASAVSGTPENDGLKALQAQMKTLRADLEKLSADMKSEDKEVVSAAEKKYDEIDQKVTDAVKTYILNNTTKQSAAKLLYDFRYSLDEAAQNEIIAKADSAFKAVPNIDKLMAHLDVLKTVAVGKKFVDFEMADPNGKTHKLSEFVGNGKNIVLIDFWASWCPPCRRDMPNLVAAYKKYKNKGFEIVGISLDSKADAWAKGVKDLNITWTQLSDLQGWKNSGAQLYGVNSIPHTVLVDKDGTIIAKNLHGEEIDAKLQEILK
MGSDKIHHHHHHMKLAFICTEKLPAPAVRGGAIQMMIDGVTPYFSSRYDLTIFSIEDPSLPKRETKDGVHYIHLPKEHYREAVAEELRASSFDLIHVFNRPLNVSLYKKASPNSKIVLSLHNEMFSEKKMTFAQGKEVLDNVSMITTVSEFIKQTVIERFPEAEDITKVVYSGVDLNSYPPVWTMKGSAVRKTYRKKYGIEDKKVILFAGRLSPTKGPHLLIHSMRRILQQHPDAVLVIAGGKWFSDDSENQYVTYLRTLALPYRDHIIFTKFIPADDIPNLFLMADVFVCSSQWNEPLARVNYEAMAAGTPLITTNRGGNGEVVKHEVTGLVIDSYNKPSSFAKAIDRAFTDQELMNKMTKNARKHVEALFTFTHAAKRLNTVYQSVLTPKNKQFPPPFLTQNFDLSSINQLFVKAKT
MGSDKIHHHHHHMKLGVNLCFAVKRWLEPDRLAGLVRDDLGLEYVQYTYDLTDPWWPDIERDRRAIAYAKAFRKAGLTIESTFGGLASYTYNHFLAPTLELQSLGYQHLKRAIDMTAAMEVPATGMPFGSYSAADALNPARREEIYAIARDMWIELAAYAKRQGLSMLYVEPVPLATEFPSSAADAARLMADLDGRTEIPVRLLVDWGHALFEPLFGPEADMDHWMDLCQPWIAAYHIQQTDGQLDRHWSFTQPGVVTPQRLQDFWDKYALTDQTFFAEILYPFEARDEDVLADMIASVKALKAASPAA
MGSDKIHHHHHHMKLYELAMTPSARRVNIFLKELGLNEQELGLERESLNLRAGDNLSDEFKAISVNGRIPVLELDDGQTLCESVAICRYFDEIITSAHSLFGDTPLEKAQVEMWQRICELQGLFVAFQAFRNITKVYEDRERCVEAWGQESRQRVIEFLPTLEKQLGQQPFVAGQNFSIADITAYVMMSFIKHLEITPSDDQPHLTAWLTKMEQRPSIIAVNG
MGSDKIHHHHHHMKMATTHQSSTKQDILEYLHKHEKATALELAEVLDVTPQAIRRHLKDLETEELVLYSTSVQAAGMGRPQHLYELSRQGRDRLHRTMSDRFGDASGNFAVSLLDTLAETVGHDQFKSILEKQWQRKAKEYRDRVGNGSLRERVANLVELRKAEGFMAEYHAVDVNDTFESDRFILMEHNCAISNVAESFPSICGHELEMFAAVLPDCTVERTHWIIDGEHRCGYLVQVRH
MGSDKIHHHHHHMKMIIGRKIGMTRVFVGNDSVPVTVIKAGPCVVVQKKTVEKDGYNAVQLGFEKAKKVNKPLAGHFKKFGVEPMKILREFRVENPDEYEPGQVIKVDVFEKGEYVDVTGWTKGRGFAGAMKRWGFSGGPKSHGSKFHRELGSVGQHTEPAKIWKGKKMPGRYGNERVTVRNLQVVDIDPENDLLVVKGGVPGARGGLVLIRSAKAPKK
